Assay results reported in patent CN116262787A (BOAOXIN BIOTECHNOLOGY NANJING CO LTD, dated 2023).

What was measured:
[1] = target: T1, 人LAG-3 on the surface of a stable 293T cell line overexpressing it (human, UniProt P18627 23-525); experiment: flow cytometry on 293T cells overexpressing human LAG-3
T1 construct: whole, on cells; also called 表面过表达人LAG-3的293T细胞
T1 sequence (looked up): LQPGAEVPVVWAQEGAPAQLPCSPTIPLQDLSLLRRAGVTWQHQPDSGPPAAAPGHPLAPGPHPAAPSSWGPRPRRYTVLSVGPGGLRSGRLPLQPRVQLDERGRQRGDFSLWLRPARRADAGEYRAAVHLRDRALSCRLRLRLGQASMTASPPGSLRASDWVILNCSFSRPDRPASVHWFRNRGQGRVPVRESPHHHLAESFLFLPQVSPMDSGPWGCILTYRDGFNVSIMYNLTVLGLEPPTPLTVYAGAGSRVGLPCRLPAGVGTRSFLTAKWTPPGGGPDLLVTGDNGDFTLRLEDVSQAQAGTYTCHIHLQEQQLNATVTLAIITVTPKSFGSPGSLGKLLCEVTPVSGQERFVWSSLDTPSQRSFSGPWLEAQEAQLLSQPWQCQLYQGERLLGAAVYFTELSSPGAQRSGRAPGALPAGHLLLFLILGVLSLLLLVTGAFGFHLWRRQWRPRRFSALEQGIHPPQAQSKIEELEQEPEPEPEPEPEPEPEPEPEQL

[2] = target: T2, 生物素标记的人LAG-3蛋白 (LAG-3-Fc-bio, cat#LA3-H82Fb, Acro) (human, UniProt P18627 23-450, biotin label (site not stated)); experiment: capture ELISA: antibody captured on GAM-Fab/GAH-Fab, LAG-3-Fc-bio in solution, SA-HRP
T2 construct: Bought protein (Acro LA3-H82Fb); also called 人LAG-3-Fc-bio; not shown: Fc part of the bought fusion
T2 sequence (looked up): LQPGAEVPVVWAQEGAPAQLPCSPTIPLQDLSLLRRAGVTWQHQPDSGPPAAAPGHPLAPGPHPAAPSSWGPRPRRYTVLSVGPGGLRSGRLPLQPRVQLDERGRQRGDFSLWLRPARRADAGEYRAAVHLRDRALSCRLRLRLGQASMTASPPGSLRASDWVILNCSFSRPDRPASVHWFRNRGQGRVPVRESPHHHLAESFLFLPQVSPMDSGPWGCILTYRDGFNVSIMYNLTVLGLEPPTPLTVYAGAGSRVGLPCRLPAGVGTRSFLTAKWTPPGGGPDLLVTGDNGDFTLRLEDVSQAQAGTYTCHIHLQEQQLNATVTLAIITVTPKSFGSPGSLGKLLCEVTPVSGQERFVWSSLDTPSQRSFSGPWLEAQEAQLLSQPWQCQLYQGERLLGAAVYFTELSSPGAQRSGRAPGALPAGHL

[3] = target: T3, 小鼠LAG-3-his (in-house, mouse LAG-3 Uniprot #Q61790, Gly24-Leu442) (mouse, UniProt Q61790 24-442); experiment: indirect ELISA, coated mouse LAG-3-his
T3 construct: range 24-442; also called 鼠LAG-3蛋白; not shown: his tag
T3 sequence (looked up): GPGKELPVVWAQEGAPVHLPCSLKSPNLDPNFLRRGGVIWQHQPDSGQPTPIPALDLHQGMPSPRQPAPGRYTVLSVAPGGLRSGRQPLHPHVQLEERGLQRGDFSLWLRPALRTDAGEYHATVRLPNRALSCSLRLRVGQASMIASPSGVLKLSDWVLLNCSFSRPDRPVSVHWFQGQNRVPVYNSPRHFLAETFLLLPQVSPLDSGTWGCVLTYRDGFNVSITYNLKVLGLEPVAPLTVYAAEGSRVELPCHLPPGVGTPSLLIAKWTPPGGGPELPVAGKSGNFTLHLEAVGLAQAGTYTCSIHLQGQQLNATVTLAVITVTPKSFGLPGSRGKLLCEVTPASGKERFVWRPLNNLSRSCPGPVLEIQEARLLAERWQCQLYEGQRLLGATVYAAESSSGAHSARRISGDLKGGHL

B1: 抗人LAG-3抗体G1A7 (mouse anti-human LAG-3 monoclonal antibody G1A7) (antibody, V domains shown)
VH: EVQLQQSGPVLVKPGASVKMSCKASGYTFTHYYMNWVKQSHGKSLEWIGVINPYNGDTSYKQNFKGKATLTVDKTSSTAYMDLNSLTSEDSAVYYCARDDGYYQWYFDVWGTGTTVTVSS
VL: DIQLTQSPSSLSASLGERVSLTCRASQDIGSRLIWLQQGPDGTIKRLIFATSSLDSGVPKRFSGSRSGSDYSLTISSLESEDFVDYYCLQCASSPPTFGGGTKLEIK
notes: Tested as the mouse monoclonal antibody purified from hybridoma culture; also called 本发明的抗体G1A7
- binding result [1]: binds
- binding result [2]: binds
- binding result [3]: no binding (tested: from 66.7nM, serial 5-fold dilution)

B2: Relatlimab (BRISTOL-MYERS SQUIBB COMPANY, BMS), reference antibody, prepared in-house (antibody, human IgG4 S228P, kappa, V domains shown)
VH: QVQLQQWGAGLLKPSETLSLTCAVYGGSFSDYYWNWIRQPPGKGLEWIGEINHRGSTNSNPSLKSRVTLSLDTSKNQFSLKLRSVTAADTAVYYCAFGYSDYEYNWFDPWGQGTLVTVSS
VL: EIVLTQSPATLSLSPGERATLSCRASQSISSYLAWYQQKPGQAPRLLIYDASNRATGIPARFSGSGSGTDFTLTISSLEPEDFAVYYCQQRSNWPLTFGQGTNLEIKR
notes: also called 参照抗体; 参照抗体Relatlimab
- binding result [3]: no binding (tested: from 66.7nM, serial 5-fold dilution)
